Measured values: publication PMC3441732, “Marburg Virus VP35 Can Both Fully Coat the Backbone and Cap the Ends of dsRNA for Interferon Antagonism”

What was measured:
MARV VP35 RBD [1] = target: T1, MARV VP35 RBD (Marburg virus, UniProt P35259 205-329); assay: ITC; 10 mM Tris pH 8.0, 200 mM NaCl, 2 mM TCEP ([…], and ITC); temperature not stated; conditions: protein: recombinant, tags: 6xHis (pET46b), TEV-cleaved, chain copies: 4, label: 5'-32P sense strand (dot blot), none in ITC
RESTV VP35 RBD [2] = target: T2, RESTV VP35 RBD (Reston virus (RESTV), UniProt Q8JPY0 205-329); assay: dual-filter dot blot; Hill 2.6±0.2; 10 mM Tris pH 8.0, 200 mM NaCl, 2 mM TCEP ([…], and ITC); temperature not stated; conditions: protein: recombinant; tags: 6xHis, cleaved; chain copies: 2; label: 5'-32P sense strand (dot blot); none in ITC; blunt
T2 sequence: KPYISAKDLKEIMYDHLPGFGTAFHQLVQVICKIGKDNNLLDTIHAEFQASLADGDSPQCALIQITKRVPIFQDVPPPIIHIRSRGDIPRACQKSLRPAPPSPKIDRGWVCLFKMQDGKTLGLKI

EBOV VP35 RBD [3] = target: T3, EBOV VP35 RBD (Ebola virus, UniProt Q05127 216-340); assay: dual-filter dot blot; Hill 2.9±0.3; 10 mM Tris pH 8.0, 200 mM NaCl, 2 mM TCEP ([…], and ITC); temperature not stated; conditions: protein: recombinant; tags: 6xHis, cleaved; label: 5'-32P sense strand (dot blot); none in ITC; blunt
T3 sequence (Q05127 216-340): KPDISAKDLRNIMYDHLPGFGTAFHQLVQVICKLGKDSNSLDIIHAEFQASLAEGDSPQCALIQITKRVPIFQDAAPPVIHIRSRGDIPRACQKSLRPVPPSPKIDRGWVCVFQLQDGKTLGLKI

MARV VP35 RBD [4] = target: T1, MARV VP35 RBD; assay: dual-filter dot blot; Hill 3.5±0.3; 10 mM Tris pH 8.0, 200 mM NaCl, 2 mM TCEP ([…], and ITC); temperature not stated; conditions: protein: recombinant; tags: 6xHis (pET46b), TEV-cleaved; chain copies: 4; label: 5'-32P sense strand (dot blot); none in ITC; blunt
EBOV VP35 RBD [5] = target: T3, EBOV VP35 RBD; assay: dual-filter dot blot; Hill 3.6±0.4; 10 mM Tris pH 8.0, 200 mM NaCl, 2 mM TCEP ([…], and ITC); temperature not stated; conditions: protein: recombinant; tags: 6xHis, cleaved; label: 5'-32P sense strand (dot blot); none in ITC
MARV VP35 RBD [6] = target: T1, MARV VP35 RBD; assay: dual-filter dot blot; Hill 3.1±0.2; 10 mM Tris pH 8.0, 200 mM NaCl, 2 mM TCEP ([…], and ITC); temperature not stated; conditions: protein: recombinant; tags: 6xHis (pET46b), TEV-cleaved; chain copies: 4; label: 5'-32P sense strand (dot blot); none in ITC
RESTV VP35 RBD [7] = target: T2, RESTV VP35 RBD; assay: dual-filter dot blot; Hill 3.4±0.4; 10 mM Tris pH 8.0, 200 mM NaCl, 2 mM TCEP ([…], and ITC); temperature not stated; conditions: protein: recombinant; tags: 6xHis, cleaved; chain copies: 2; label: 5'-32P sense strand (dot blot); none in ITC
MARV VP35 RBD [8] = target: T1, MARV VP35 RBD; assay: X-ray crystal structure; 10 mM Tris pH 8.0, 200 mM NaCl, 2 mM TCEP ([…], and ITC); temperature not stated; conditions: protein: recombinant; tags: 6xHis (pET46b), TEV-cleaved; chain copies: 4
MARV VP35 RBD [9] = target: T1, MARV VP35 RBD; assay: dual-filter dot blot; Hill 2.1±0.2; 10 mM Tris pH 8.0, 200 mM NaCl, 2 mM TCEP ([…], and ITC); temperature not stated; conditions: protein: recombinant; tags: 6xHis (pET46b), TEV-cleaved; chain copies: 4; label: 5'-32P sense strand

T1 sequence (P35259 205-329): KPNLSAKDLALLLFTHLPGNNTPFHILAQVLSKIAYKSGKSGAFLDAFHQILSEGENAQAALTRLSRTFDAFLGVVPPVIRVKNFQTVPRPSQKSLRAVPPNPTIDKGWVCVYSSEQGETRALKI

B1: 18-bp blunt-ended dsRNA (dsRNA)
RNA 1: AGAAGGAGGGAGGGAGGA
RNA 2: UCCUCCCUCCCUCCUUCU
Work on B1 yielded a Kd (MARV VP35 RBD [1]; blunt) of 28.6 ± 16.5 µM, a Kd (RESTV VP35 RBD [2]) of 2.5 ± 0.1 µM and a Kd (EBOV VP35 RBD [3]) of 1.9 ± 0.1 µM. For the same binder, the Kd (MARV VP35 RBD [4]) was 8.4 ± 0.2 µM.

B2: 18-bp dsRNA with 3' overhang (dsRNA)
RNA 1: AGAAGGAGGGAGGGAGGAGAG
RNA 2: CUCUCCUCCCUCCCUCCUUCU
Work on B2 yielded a Kd (EBOV VP35 RBD [5]) of 17.1 ± 0.7 µM, a Kd (MARV VP35 RBD [6]) of 9.3 ± 0.2 µM and a Kd (MARV VP35 RBD [1]) of 3.4 µM. The Kd (RESTV VP35 RBD [7]) was 6 ± 0.2 µM.

B3: 12-bp palindromic dsRNA (crystal) (dsRNA)
RNA 1: CUAGACGUCUAG
RNA 2: CUAGACGUCUAG
B3: binds (MARV VP35 RBD [8]).

B4: 18-bp dsRNA with 5' overhang (dsRNA)
RNA 1: GAGAGAAGGAGGGAGGGAGGA
RNA 2: UCCUCCCUCCCUCCUUCUCUC
B4 gave a Kd (MARV VP35 RBD [9]) of 4.4 ± 0.3 µM.
